Paper PMC10272122 (2023)

Target: PDF-2180 RBD-hFc (PDF-2180)
Test: BLI

B1: ACE2 from Pipistrellus pipistrellus (Ppip ACE2) (receptor)
chain: TTEEEARDFLDKFNSEAENLSHESALASWDYNTNITDENAQKMNEADSKWSDFYKEQSKRAQAFPLQEIQNLTIKLQLQILQQNGSSVLTAEKSKRLSTILTTMSTIYSTGKVCNPNNPQQCFTLSGLEDIMEKSKDYHQRLWVWEGWRSEVGKQLRPLYEEYVVLKNEMARGNNYEDYGDYWRGDYETEGEDGYNYSRNQLMEDVDRIFLEIKPLYEQLHAYVRAKLMNAYPSRISPTGCLPAHLLGDMWGRFWTNLYNLTVPFEQKQNIDVTETMKKQSWDAEKIFKEAEKFYLSVGLYSMTQGFWNNSMLTEPSDGRQVVCHPTAWDLGEDDFRIKMCTKVTMDDFLTAHHEMGHIQYDMAYAKQPYLLRNGANEGFHEAVGEVMSLSVATPKHLKGMGLLPSDFSEDNETEINFLLKQALNIVGTLPFTYMLEKWRWMVFEGKIPKEQWMEKWWEMKREIVGVVEPLPHDETYCDPASLFHVANDYSFIRYFTRTILEFQFQEALCKIAKHEGPLHKCDISNSTEAGKKLKDMLELGKSKPWTYALNQIARTKEMDAKPLLNYFEPLFSWLKKQNGNSVGWSADWSPYSEQSLKVRISLISALGEKAYEWNDNEMYLFRSSVAYAMRVYFSKMNKTIPFTAEDVRVSDEKKRVSFKFFVTSPTNISDIIPRSEVEDAIRMSRSRINDA
Kd: 0.417 nM | koff: 5.54e-05 s⁻¹
